Results taken from publication PMC8399745, “Nanostructured Lipid Carriers (NLCs) for Oral Peptide Drug Delivery: About the Impact of Surface Decoration” (Pharmaceutics, 2021).

Experiment: Log P octanol/water of INS and INS-SDS complexes
Format: physicochemical
Settings: shake-flask octanol/water (1:1), 1 mg in 1 mL, 37 °C, 500 rpm, 12 h, centrifugation, INS quantified in each phase by HPLC (214 nm); means, n = 3
Description: Log Poctanol/water of INS and INS-SDS complexes was determined using a previously described method with minor modification. Briefly, 1 mg of each product was added to 1 mL of octanol/water (1:1) (Sigma-Aldrich Chemie GmbH, Vienna, Austria). The mixtures were incubated at 37 °C while stirring at 500 rpm for 12 h. Thereafter, samples were centrifuged at 13,400 rpm for 10 min. Aliquots of 100 μL were withdrawn from each phase (octanol and water) and analyzed via HPLC after dilution with 300 μL of methanol (Sigma-Aldrich Chemie GmbH, Vienna, Austria) containing 0.1% (v/v) TFA. Log P was calculated according to the following equation: Log P=Log(Concentration of INS in octanol phase/Concentration of INS in water phase)

Human recombinant insulin
log Poctanol/water: −1.8
